Test results as given in the supplement of paper PMC10065799, “High-throughput profiling of sequence recognition by tyrosine kinases and SH2 domains using bacterial peptide display” (eLife, 2023).

Key:
SHP2-C SH2 = assay: SH2 binding enrichment of the phosphorylated peptide, bacterial display (enrichment ratio); higher = better substrate or ligand; peptides without Tyr show the background
Grb2 SH2 = Grb2 SH2 (UniProt P62993); assay: as above
c-Src SH2 = assay: as above
Fer (mouse) = assay: phosphorylation enrichment, bacterial display (enrichment ratio); higher = better substrate or ligand; peptides without Tyr show the background
Jak2 = Jak2 (UniProt O60674); assay: as above
MERTK = MERTK (UniProt Q12866); assay: as above
FGFR3 = FGFR3 (UniProt P22607); assay: as above
Hck = Hck (UniProt P08631); assay: as above
Fes = Fes (UniProt P07332); assay: as above
c-Abl (mouse) = assay: as above
c-Src = assay: as above
AncSZ = assay: as above
FGFR1 = FGFR1 (UniProt P11362); assay: as above
EPHB1 = EPHB1 (UniProt P54762); assay: as above
EPHB2 = EPHB2 (UniProt P29323); assay: as above
Fyn = Fyn (UniProt P06241); assay: as above
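For SH2 binding enrichment of the phosphorylated peptide, bacterial display in this document: peptide library displayed on the E. coli surface as eCPX fusions, selected cells deep-sequenced, score is each peptide's frequency after selection divided by its frequency in the input.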
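For phosphorylation enrichment, bacterial display in this document: 11-residue human phosphosite peptides and single-mutation variants displayed on the E. coli surface, counted by deep sequencing, each peptide's frequency after selection divided by its frequency in the unselected input library; frequency after pTyr selection over input frequency; kinase dosed for 20-30% of maximal phosphorylation in three min.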

Sequence of Fyn (P06241 whole entry, looked up, the tested form may be a part): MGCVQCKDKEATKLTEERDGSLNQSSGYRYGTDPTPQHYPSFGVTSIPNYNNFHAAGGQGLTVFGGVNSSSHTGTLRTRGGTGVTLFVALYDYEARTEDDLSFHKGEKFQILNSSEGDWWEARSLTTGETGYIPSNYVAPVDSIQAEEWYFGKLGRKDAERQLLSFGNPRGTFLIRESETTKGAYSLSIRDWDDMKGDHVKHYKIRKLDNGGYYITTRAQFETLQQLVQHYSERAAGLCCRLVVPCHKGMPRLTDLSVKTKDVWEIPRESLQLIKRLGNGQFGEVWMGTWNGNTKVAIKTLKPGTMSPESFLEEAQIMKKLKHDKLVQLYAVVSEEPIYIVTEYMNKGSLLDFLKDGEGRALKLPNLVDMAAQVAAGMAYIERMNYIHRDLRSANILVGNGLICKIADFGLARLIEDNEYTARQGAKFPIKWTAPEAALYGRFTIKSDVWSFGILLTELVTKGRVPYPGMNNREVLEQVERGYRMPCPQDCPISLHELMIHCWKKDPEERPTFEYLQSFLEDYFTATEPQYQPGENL
Sequence of Grb2 SH2 (P62993 whole entry, looked up): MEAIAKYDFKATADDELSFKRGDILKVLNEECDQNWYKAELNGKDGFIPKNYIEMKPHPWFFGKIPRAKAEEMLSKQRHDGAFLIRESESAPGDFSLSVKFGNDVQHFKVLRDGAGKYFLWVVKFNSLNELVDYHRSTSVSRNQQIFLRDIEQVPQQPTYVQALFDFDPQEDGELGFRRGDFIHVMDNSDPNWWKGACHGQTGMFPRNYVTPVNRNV
Sequence of FGFR3 (P22607 whole entry, looked up): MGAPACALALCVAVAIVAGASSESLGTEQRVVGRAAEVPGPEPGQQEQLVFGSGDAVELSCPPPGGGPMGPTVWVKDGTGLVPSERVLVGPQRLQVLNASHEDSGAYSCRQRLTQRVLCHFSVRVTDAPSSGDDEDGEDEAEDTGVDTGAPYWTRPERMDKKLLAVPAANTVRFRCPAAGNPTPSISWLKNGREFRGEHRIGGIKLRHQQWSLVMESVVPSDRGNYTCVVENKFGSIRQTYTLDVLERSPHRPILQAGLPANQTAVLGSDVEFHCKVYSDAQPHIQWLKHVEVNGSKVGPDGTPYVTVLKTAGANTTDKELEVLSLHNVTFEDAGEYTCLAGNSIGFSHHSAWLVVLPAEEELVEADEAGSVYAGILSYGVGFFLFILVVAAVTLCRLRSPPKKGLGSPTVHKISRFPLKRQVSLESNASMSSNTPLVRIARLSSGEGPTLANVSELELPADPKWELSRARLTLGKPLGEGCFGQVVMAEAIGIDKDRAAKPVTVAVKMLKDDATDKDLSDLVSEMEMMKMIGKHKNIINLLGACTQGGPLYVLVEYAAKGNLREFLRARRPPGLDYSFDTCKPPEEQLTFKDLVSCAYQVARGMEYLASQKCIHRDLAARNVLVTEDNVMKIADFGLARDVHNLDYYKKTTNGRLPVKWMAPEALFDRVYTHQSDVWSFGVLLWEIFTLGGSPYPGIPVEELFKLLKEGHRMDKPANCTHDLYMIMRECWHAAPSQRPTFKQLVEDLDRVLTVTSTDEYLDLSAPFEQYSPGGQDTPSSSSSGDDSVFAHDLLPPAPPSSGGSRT
Sequence of MERTK (Q12866 whole entry, looked up): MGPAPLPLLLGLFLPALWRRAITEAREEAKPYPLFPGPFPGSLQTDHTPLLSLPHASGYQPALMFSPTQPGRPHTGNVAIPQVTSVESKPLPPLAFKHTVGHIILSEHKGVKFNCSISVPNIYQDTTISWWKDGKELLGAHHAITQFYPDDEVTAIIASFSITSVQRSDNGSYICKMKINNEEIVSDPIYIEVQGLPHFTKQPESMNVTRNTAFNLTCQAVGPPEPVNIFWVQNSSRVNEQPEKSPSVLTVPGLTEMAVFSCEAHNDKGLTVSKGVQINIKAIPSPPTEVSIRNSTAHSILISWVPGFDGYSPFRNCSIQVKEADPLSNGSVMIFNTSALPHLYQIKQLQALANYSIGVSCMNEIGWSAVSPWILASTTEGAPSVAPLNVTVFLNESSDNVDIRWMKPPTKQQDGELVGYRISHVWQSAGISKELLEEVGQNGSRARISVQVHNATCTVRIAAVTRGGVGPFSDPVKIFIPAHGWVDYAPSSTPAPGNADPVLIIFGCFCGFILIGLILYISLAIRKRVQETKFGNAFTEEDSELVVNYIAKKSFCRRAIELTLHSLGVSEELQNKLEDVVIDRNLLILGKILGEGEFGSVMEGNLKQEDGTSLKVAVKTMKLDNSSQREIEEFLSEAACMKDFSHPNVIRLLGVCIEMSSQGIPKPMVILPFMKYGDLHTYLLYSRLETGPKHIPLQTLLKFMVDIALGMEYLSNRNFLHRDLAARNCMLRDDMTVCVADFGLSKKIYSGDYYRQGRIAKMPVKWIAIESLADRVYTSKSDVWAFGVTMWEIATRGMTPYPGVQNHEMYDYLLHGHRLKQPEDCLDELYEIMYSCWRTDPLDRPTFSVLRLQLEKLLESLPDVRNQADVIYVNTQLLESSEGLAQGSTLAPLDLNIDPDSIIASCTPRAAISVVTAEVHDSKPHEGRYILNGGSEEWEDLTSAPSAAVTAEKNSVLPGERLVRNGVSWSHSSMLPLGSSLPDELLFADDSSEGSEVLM
Sequence of EPHB1 (P54762 whole entry, looked up): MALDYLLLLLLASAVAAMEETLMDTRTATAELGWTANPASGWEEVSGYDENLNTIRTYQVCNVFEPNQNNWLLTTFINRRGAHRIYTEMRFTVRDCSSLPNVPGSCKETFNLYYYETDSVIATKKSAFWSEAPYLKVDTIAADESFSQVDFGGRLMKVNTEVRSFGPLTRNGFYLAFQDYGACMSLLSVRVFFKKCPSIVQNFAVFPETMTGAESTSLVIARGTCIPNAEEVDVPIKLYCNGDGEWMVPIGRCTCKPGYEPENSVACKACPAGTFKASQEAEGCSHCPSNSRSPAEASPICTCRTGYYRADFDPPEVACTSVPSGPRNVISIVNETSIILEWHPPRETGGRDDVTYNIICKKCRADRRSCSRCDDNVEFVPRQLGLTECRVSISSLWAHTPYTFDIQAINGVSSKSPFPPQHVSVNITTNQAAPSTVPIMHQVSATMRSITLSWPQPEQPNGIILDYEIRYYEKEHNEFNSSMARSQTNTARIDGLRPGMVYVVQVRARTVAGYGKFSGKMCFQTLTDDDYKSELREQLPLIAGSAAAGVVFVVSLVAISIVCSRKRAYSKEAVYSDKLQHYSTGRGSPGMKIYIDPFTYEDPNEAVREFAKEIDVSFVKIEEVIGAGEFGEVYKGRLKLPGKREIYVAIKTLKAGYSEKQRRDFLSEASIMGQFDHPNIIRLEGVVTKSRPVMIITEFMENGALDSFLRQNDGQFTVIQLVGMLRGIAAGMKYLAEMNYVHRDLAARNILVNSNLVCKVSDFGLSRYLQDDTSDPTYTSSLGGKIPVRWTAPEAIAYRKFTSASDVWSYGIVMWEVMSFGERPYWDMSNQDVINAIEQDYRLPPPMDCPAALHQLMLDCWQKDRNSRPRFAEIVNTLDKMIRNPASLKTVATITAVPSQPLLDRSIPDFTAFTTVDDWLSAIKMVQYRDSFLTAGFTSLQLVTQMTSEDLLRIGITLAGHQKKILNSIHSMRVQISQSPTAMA
Sequence of Jak2 (O60674 whole entry, looked up): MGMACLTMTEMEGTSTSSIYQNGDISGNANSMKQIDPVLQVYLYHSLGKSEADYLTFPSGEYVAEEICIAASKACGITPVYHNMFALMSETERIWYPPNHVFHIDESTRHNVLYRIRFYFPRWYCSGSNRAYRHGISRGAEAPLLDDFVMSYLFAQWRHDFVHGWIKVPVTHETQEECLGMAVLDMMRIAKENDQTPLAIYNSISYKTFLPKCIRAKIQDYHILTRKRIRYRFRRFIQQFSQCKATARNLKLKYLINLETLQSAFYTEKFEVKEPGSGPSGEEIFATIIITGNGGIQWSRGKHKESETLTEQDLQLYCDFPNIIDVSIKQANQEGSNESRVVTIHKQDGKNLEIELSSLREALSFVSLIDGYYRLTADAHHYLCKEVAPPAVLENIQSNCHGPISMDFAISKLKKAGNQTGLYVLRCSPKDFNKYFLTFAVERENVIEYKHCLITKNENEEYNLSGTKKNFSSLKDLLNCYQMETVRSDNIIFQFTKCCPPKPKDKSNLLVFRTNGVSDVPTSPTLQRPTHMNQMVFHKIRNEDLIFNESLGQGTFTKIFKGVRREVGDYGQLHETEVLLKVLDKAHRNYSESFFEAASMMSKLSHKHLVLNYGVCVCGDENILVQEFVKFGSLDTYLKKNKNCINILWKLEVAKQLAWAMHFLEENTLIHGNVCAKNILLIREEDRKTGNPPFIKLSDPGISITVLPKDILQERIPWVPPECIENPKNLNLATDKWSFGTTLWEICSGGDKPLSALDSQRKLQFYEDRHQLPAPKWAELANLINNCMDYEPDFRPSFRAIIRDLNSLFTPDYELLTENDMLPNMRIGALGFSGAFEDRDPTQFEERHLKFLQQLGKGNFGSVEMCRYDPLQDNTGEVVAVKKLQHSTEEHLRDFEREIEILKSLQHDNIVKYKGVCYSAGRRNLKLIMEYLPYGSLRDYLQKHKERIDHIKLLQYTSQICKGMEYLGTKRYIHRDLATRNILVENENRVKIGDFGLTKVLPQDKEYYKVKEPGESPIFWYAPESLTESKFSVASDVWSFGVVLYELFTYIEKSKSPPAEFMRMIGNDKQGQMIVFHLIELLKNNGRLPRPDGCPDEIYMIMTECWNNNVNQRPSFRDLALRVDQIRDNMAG

| Sequence | SH2 binding enrichment (SHP2-C SH2) | SH2 binding enrichment (Grb2 SH2) | SH2 binding enrichment (c-Src SH2) | phosphorylation enrichment (Fer (mouse)) | phosphorylation enrichment (Jak2) | phosphorylation enrichment (MERTK) | phosphorylation enrichment (FGFR3) | phosphorylation enrichment (Hck) | phosphorylation enrichment (Fes) | phosphorylation enrichment (c-Abl (mouse)) | phosphorylation enrichment (c-Src) | phosphorylation enrichment (AncSZ) | phosphorylation enrichment (FGFR1) | phosphorylation enrichment (EPHB1) | phosphorylation enrichment (EPHB2) | phosphorylation enrichment (Fyn) |
| --- | --- | --- | --- | --- | --- | --- | --- | --- | --- | --- | --- | --- | --- | --- | --- | --- |
| RGDVIYKGFED [NFU1_Y194_G189R] | 0.634 | 0.797 | 0.488 | 0.681 | 0.815 | 0.481 | 0.699 | 1.07 | 1.03 | 0.445 | 2.03 | 0.81 | 0.514 | 0.622 | 0.672 | 4.47 |
| SREALYNEMDP [CACNA1A_Y794] | 0.489 | 0.913 | 1.28 | 0.731 | 1.14 | 2.36 | 0.896 | 0.834 | 1.24 | 0.852 | 0.869 | 1.41 | 0.692 | 0.735 | 0.693 | 0.685 |
| VRTSKYRGGGG [HBA1_Y141_L137R] | 0.571 | 0.602 | 0.353 | 0.365 | 0.609 | 0.648 | 0.618 | 0.424 | 0.676 | 0.637 | 0.542 | 0.64 | 0.423 | 0.366 | 0.407 | 0.426 |
| ELAKFYKLHHI [AK7_Y391_N389K_YF] | 0.747 | 0.646 | 0.414 | 0.462 | 0.645 | 0.536 | 0.531 | 0.501 | 0.762 | 0.621 | 0.505 | 0.65 | 0.453 | 0.547 | 0.452 | 0.566 |
| PELINYHQHNS [BTK_Y361] | 0.767 | 1 | 0.466 | 0.664 | 1 | 0.579 | 1.02 | 0.69 | 1.06 | 0.561 | 0.68 | 0.981 | 1.27 | 0.666 | 0.769 | 0.648 |
| KNRDVSSSDFF [USP24_Y2134_Y2134S_YF] | 0.635 | 0.882 | 0.424 | 0.427 | 0.641 | 0.436 | 0.539 | 0.425 | 0.71 | 0.583 | 0.399 | 0.701 | 0.365 | 0.444 | 0.393 | 0.432 |
| AGGTRYRFVSQ [UCN3_Y95_R91G_YF] | 0.641 | 0.849 | 0.489 | 0.386 | 0.465 | 0.363 | 0.377 | 0.338 | 0.43 | 0.576 | 0.393 | 0.426 | 0.461 | 0.397 | 0.272 | 0.536 |
| QWPGPYDRPGA [HNRNPH2_Y210_R206W] | 0.789 | 0.885 | 1.33 | 0.858 | 0.719 | 0.541 | 0.798 | 0.73 | 0.928 | 0.681 | 0.54 | 0.646 | 0.602 | 0.416 | 0.513 | 0.636 |
| SFKNKYGMVAQ [APOB_Y276_YF] | 0.543 | 0.934 | 0.455 | 0.335 | 0.43 | 0.341 | 0.39 | 0.354 | 0.574 | 0.465 | 0.375 | 0.42 | 0.335 | 0.302 | 0.354 | 0.353 |
| YASALYRQRRS [FGF11_Y162] | 0.34 | 0.649 | 0.419 | 0.431 | 0.513 | 0.535 | 0.58 | 0.548 | 0.632 | 0.703 | 0.659 | 0.613 | 0.507 | 0.433 | 0.62 | 0.687 |
| HEEDNYIEMIP [NWD2_Y566_L569M] | 0.747 | 0.553 | 0.467 | 0.938 | 2.39 | 1.13 | 3.82 | 0.822 | 2.85 | 1.86 | 1.16 | 3.02 | 3.93 | 1.68 | 1.19 | 0.67 |
| RARIRYAQEHD [NSD1_Y1987] | 0.536 | 0.663 | 0.572 | 0.737 | 0.691 | 0.627 | 0.625 | 0.85 | 0.885 | 0.706 | 0.636 | 1.12 | 0.689 | 0.727 | 1.19 | 0.757 |
| NNPAFYVLEGV [INPPL1_Y987_YF] | 0.693 | 0.768 | 0.682 | 0.42 | 0.87 | 0.554 | 0.612 | 0.485 | 1 | 0.616 | 0.638 | 0.956 | 0.653 | 0.5 | 0.581 | 0.699 |
| DRPASYLEKVR [KRT13_Y118_L115P] | 1.03 | 1.08 | 0.579 | 0.276 | 0.43 | 0.342 | 0.404 | 0.284 | 0.605 | 0.441 | 0.362 | 0.438 | 0.3 | 0.307 | 0.247 | 0.299 |
| AFEQQYSPIPK [NOX1_Y373_R378K] | 0.569 | 0.856 | 0.74 | 0.435 | 0.534 | 0.874 | 0.575 | 3.14 | 0.741 | 0.612 | 0.802 | 0.772 | 0.744 | 0.766 | 0.411 | 0.514 |
| HEVHIYEKSGA [ARPC1B_Y35] | 0.667 | 0.817 | 2.29 | 1.03 | 1.06 | 0.77 | 0.993 | 1.68 | 1.74 | 1.69 | 1.48 | 1.38 | 0.673 | 1.1 | 0.611 | 1.01 |
| LVQAEYWHDRI [PPT1_Y185_P189R] | 0.511 | 0.699 | 0.685 | 0.706 | 1.25 | 0.522 | 2.08 | 0.605 | 1 | 0.868 | 0.603 | 1.16 | 3.27 | 0.684 | 0.896 | 0.396 |

| Sequence | SH2 binding enrichment (SHP2-C SH2) | SH2 binding enrichment (Grb2 SH2) | SH2 binding enrichment (c-Src SH2) | phosphorylation enrichment (Fer (mouse)) | phosphorylation enrichment (Jak2) | phosphorylation enrichment (MERTK) | phosphorylation enrichment (FGFR3) | phosphorylation enrichment (Hck) | phosphorylation enrichment (Fes) | phosphorylation enrichment (c-Abl (mouse)) | phosphorylation enrichment (c-Src) | phosphorylation enrichment (AncSZ) | phosphorylation enrichment (FGFR1) | phosphorylation enrichment (EPHB1) | phosphorylation enrichment (EPHB2) | phosphorylation enrichment (Fyn) |
| --- | --- | --- | --- | --- | --- | --- | --- | --- | --- | --- | --- | --- | --- | --- | --- | --- |
| KDKLPYLYDDP [GPX2_Y125_P126L] | 0.682 | 0.871 | 1.04 | 0.77 | 0.857 | 0.461 | 0.624 | 0.537 | 0.983 | 0.547 | 0.455 | 1.17 | 0.5 | 0.947 | 0.765 | 0.522 |
| HRGSLYLAIEF [TEK_Y899_Y897S_YF] | 0.683 | 0.956 | 0.536 | 0.748 | 1.28 | 0.538 | 0.902 | 0.48 | 1.55 | 1.19 | 0.489 | 1.23 | 0.589 | 0.641 | 0.491 | 0.538 |
| PDNEPYIFKVF [PIK3AP1_Y553] | 1 | 1.1 | 0.755 | 0.647 | 2.79 | 0.725 | 1.5 | 0.758 | 2.25 | 1.19 | 1.05 | 2.37 | 1.16 | 0.684 | 0.787 | 0.846 |
| YRQLPYCPSVE [CTNND2_Y508_Q507P] | 0.585 | 0.686 | 0.494 | 0.804 | 1.41 | 0.728 | 1.41 | 1.09 | 1.53 | 5.88 | 0.881 | 1.51 | 1.48 | 0.692 | 0.747 | 0.647 |
| GAPATYEGDAR [CACNA1A_Y1013] | 0.669 | 0.893 | 0.649 | 0.565 | 0.497 | 0.345 | 0.51 | 0.467 | 0.666 | 0.397 | 0.368 | 0.58 | 0.543 | 0.354 | 0.499 | 0.388 |
| GHEEFYSTHPH [LRRK2_Y1402_R1398H] | 1.09 | 0.771 | 0.434 | 1.41 | 0.59 | 1.77 | 0.549 | 1.15 | 0.626 | 0.504 | 1.2 | 0.664 | 0.76 | 0.617 | 0.7 | 0.638 |
| SGIFQYNIAKF [FOXL2_Y83_I84N_YF] | 1.11 | 1.21 | 0.899 | 0.48 | 0.876 | 0.435 | 0.691 | 0.494 | 1.01 | 0.739 | 0.432 | 0.786 | 0.486 | 0.59 | 0.541 | 0.472 |
| RDSQLYAVDFE [MRPS34_Y34_YF] | 1.07 | 1.37 | 0.701 | 0.728 | 1.09 | 1.9 | 0.788 | 0.908 | 1.58 | 0.876 | 1.35 | 1.49 | 0.53 | 1.04 | 0.869 | 0.993 |
| QTEGEYSSLEH [IDH3B_Y171] | 0.634 | 0.71 | 0.721 | 0.836 | 1.64 | 0.556 | 0.874 | 1.04 | 1.82 | 1.94 | 1.26 | 1.79 | 0.995 | 0.91 | 1.01 | 0.886 |
| EQFELYCEMGS [CBL_Y371_YF] | 0.638 | 0.934 | 0.46 | 1 | 1.39 | 1.58 | 1.54 | 2.27 | 1.68 | 1.02 | 1.49 | 1.95 | 1.26 | 3.34 | 2.66 | 1.43 |
| IGNGYYFRVFS [MYBPC3_Y1136] | 0.861 | 0.977 | 0.561 | 0.556 | 1.44 | 0.449 | 0.947 | 0.557 | 1.43 | 0.967 | 0.359 | 1.34 | 0.514 | 0.729 | 0.667 | 0.496 |
| PEADKYRLTFA [FGG_Y300_YF] | 0.673 | 0.75 | 0.475 | 0.546 | 1 | 0.451 | 0.78 | 0.76 | 1.18 | 0.918 | 0.568 | 1.05 | 0.626 | 0.887 | 0.697 | 0.553 |
| LYSINYLHFGD [KDM4C_Y201_E206D] | 2.45 | 1.69 | 1.2 | 15.8 | 1.47 | 12.8 | 3.85 | 4.59 | 1.84 | 1.73 | 3.68 | 1.99 | 5.82 | 12.7 | 12.1 | 4.87 |
| TEYSQYMRRKN [MAX_Y73_I71S] | 0.411 | 0.653 | 0.397 | 0.443 | 0.507 | 0.558 | 0.508 | 0.562 | 0.622 | 0.418 | 0.523 | 0.674 | 0.548 | 0.476 | 0.563 | 0.536 |
| GGPTFYIDTNA [ACTL6A_Y69_YF] | 0.608 | 0.874 | 0.577 | 0.529 | 1.13 | 0.41 | 0.868 | 0.53 | 1.39 | 0.775 | 0.439 | 1.24 | 0.542 | 0.707 | 0.626 | 0.458 |
| GSPAPYRRRKR [MBD1_Y403_P401A] | 0.413 | 0.594 | 0.42 | 0.505 | 0.632 | 0.608 | 0.426 | 0.498 | 0.545 | 0.497 | 0.618 | 0.617 | 0.596 | 0.466 | 0.499 | 0.502 |
